The supplement of paper PMC9112550, “Optimization of the antimicrobial peptide Bac7 by deep mutational scanning” (BMC Biology, 2022)

System: Escherichia coli TOP10
Test: shrunken log2 fold change of peptide-encoding DNA abundance (4.5 h post-induction vs induction); higher = less antimicrobial activity (less host growth inhibition)
Conditions: time post-induction: 4.5 h; library: site-saturation at positions 5, 18, 19, 20
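Also: peptides expressed intracellularly from a pBAD plasmid library in pooled LB shake-flask culture, induced with 0.3% L-arabinose, DNA abundance read by NGS, three biological replicates, DESeq2 with apeglm shrinkage.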

Sequence | shrunken log2 fold change
RRIRTRPPRLPRPRPRPVGNPRP | 0.0924
RRIRFRPPRLPRPRPRPWNPPRP | -0.222
RRIRARPPRLPRPRPRPTGAPRP | 0.906
RRIRNRPPRLPRPRPRPCQWPRP | 0.0401
RRIRQRPPRLPRPRPRPTNVPRP | -0.302
RRIRCRPPRLPRPRPRPVGEPRP | 0.0624
RRIRWRPPRLPRPRPRPQYDPRP | -0.212
RRIRYRPPRLPRPRPRPSKQPRP | -0.137
RRIRLRPPRLPRPRPRPSKGPRP | -0.123
RRIRGRPPRLPRPRPRPGKWPRP | 0.566
RRIRWRPPRLPRPRPRPKVLPRP | 0.155
RRIRARPPRLPRPRPRPDGWPRP | 1.22
RRIRMRPPRLPRPRPRPRDPPRP | 0.705
RRIRPRPPRLPRPRPRPDYIPRP | -1.2
RRIRTRPPRLPRPRPRPDPRPRP | 0.0663
RRIRMRPPRLPRPRPRPFYYPRP | -0.527
RRIRDRPPRLPRPRPRPYLEPRP | -0.0399
RRIRWRPPRLPRPRPRPNMGPRP | -0.0382
RRIRLRPPRLPRPRPRPAINPRP | -0.157
RRIRRRPPRLPRPRPRPRMCPRP | 0.17
RRIRHRPPRLPRPRPRPYHRPRP | -0.00968
RRIRCRPPRLPRPRPRPHQSPRP | -0.0603
RRIRSRPPRLPRPRPRPAWEPRP | 0.499
RRIRQRPPRLPRPRPRPNEWPRP | -0.00822
RRIRCRPPRLPRPRPRPTINPRP | -0.783

Sequence | shrunken log2 fold change
RRIRDRPPRLPRPRPRPWQAPRP | -0.0194
RRIRCRPPRLPRPRPRPDSIPRP | -0.0365
RRIRFRPPRLPRPRPRPKQEPRP | 0.246
RRIRKRPPRLPRPRPRPHTDPRP | -0.0857
RRIRERPPRLPRPRPRPCYPPRP | -0.498
RRIRTRPPRLPRPRPRPHREPRP | -0.075
RRIRVRPPRLPRPRPRPVSWPRP | 0.469
RRIRWRPPRLPRPRPRPPLPPRP | 1.07
RRIRIRPPRLPRPRPRPTWDPRP | 0.372
RRIRRRPPRLPRPRPRPWRWPRP | 0.14
RRIRGRPPRLPRPRPRPVLFPRP | 0.752
RRIRKRPPRLPRPRPRPGRMPRP | 0.554
RRIRFRPPRLPRPRPRPMKFPRP | -0.681
RRIRFRPPRLPRPRPRPGQYPRP | -0.0815
RRIRYRPPRLPRPRPRPAYNPRP | -0.638
RRIRPRPPRLPRPRPRPRGAPRP | 0.495
RRIRRRPPRLPRPRPRPPNPPRP | 0.691
RRIRHRPPRLPRPRPRPISFPRP | -0.281
RRIRYRPPRLPRPRPRPIAAPRP | -0.158
RRIRFRPPRLPRPRPRPKINPRP | -0.385
RRIRCRPPRLPRPRPRPGIFPRP | 0.0252
RRIRGRPPRLPRPRPRPDDKPRP | 0.22
RRIRNRPPRLPRPRPRPDVIPRP | -0.135
RRIRARPPRLPRPRPRPQFSPRP | 0.0761
RRIRARPPRLPRPRPRPLECPRP | 0.184

Sequence | shrunken log2 fold change
RRIRCRPPRLPRPRPRPCLKPRP | -0.277
RRIRHRPPRLPRPRPRPNESPRP | -0.506
RRIRPRPPRLPRPRPRPYAQPRP | -0.478
RRIRLRPPRLPRPRPRPETGPRP | -0.0316
RRIRWRPPRLPRPRPRPDCNPRP | -0.0173
RRIRMRPPRLPRPRPRPAIRPRP | -0.0476
RRIRGRPPRLPRPRPRPQFNPRP | -0.163
RRIRGRPPRLPRPRPRPWGEPRP | 0.285
RRIRHRPPRLPRPRPRPSEAPRP | -0.344
RRIRWRPPRLPRPRPRPNYSPRP | -0.15
RRIRTRPPRLPRPRPRPHWSPRP | -0.147
RRIRGRPPRLPRPRPRPCGHPRP | 0.666
RRIRPRPPRLPRPRPRPKRSPRP | 0.0941
RRIRQRPPRLPRPRPRPAMMPRP | 0.00621
RRIRYRPPRLPRPRPRPYDWPRP | -0.886
RRIRRRPPRLPRPRPRPKLGPRP | 0.141
RRIRWRPPRLPRPRPRPTTWPRP | 0.297
RRIRPRPPRLPRPRPRPQWYPRP | -0.257
RRIRLRPPRLPRPRPRPARQPRP | 0.281
RRIRARPPRLPRPRPRPVMIPRP | 0.0471
RRIRYRPPRLPRPRPRPMQNPRP | -0.488
RRIRGRPPRLPRPRPRPKGTPRP | 0.294
RRIRCRPPRLPRPRPRPESFPRP | 0.0159
RRIRHRPPRLPRPRPRPYAQPRP | -0.279
RRIRWRPPRLPRPRPRPCKQPRP | -0.156

Sequence | shrunken log2 fold change
RRIRQRPPRLPRPRPRPQRRPRP | 0.0498
RRIRTRPPRLPRPRPRPDLTPRP | 0.129
RRIRDRPPRLPRPRPRPPHIPRP | -0.213
RRIRYRPPRLPRPRPRPMLWPRP | -0.0139
RRIRSRPPRLPRPRPRPVDCPRP | -0.12
RRIRDRPPRLPRPRPRPPDHPRP | 0.527
RRIRPRPPRLPRPRPRPRKQPRP | 0.0406
RRIRTRPPRLPRPRPRPLVNPRP | -0.559
RRIRMRPPRLPRPRPRPMKGPRP | 0.235
RRIRARPPRLPRPRPRPTARPRP | 0.874
RRIRLRPPRLPRPRPRPQLPPRP | 0.178
RRIRLRPPRLPRPRPRPFLEPRP | -0.106
RRIRTRPPRLPRPRPRPAKRPRP | 0.0872
RRIRRRPPRLPRPRPRPGLGPRP | 0.55
RRIRSRPPRLPRPRPRPIYGPRP | -0.306
RRIRYRPPRLPRPRPRPYPAPRP | -0.641
RRIRTRPPRLPRPRPRPLVTPRP | -0.227
RRIRYRPPRLPRPRPRPIRAPRP | 0.0501
RRIRIRPPRLPRPRPRPPDYPRP | -0.0646
RRIRGRPPRLPRPRPRPLTGPRP | 0.71
RRIRFRPPRLPRPRPRPECDPRP | 0.248
RRIRERPPRLPRPRPRPSCKPRP | -0.277
RRIRGRPPRLPRPRPRPIPFPRP | 0.266
RRIRHRPPRLPRPRPRPPNLPRP | 0.189
RRIRRRPPRLPRPRPRPQKTPRP | -0.019

Sequence | shrunken log2 fold change
RRIRIRPPRLPRPRPRPVAMPRP | -0.0657
RRIRARPPRLPRPRPRPKFFPRP | 0.305
RRIRHRPPRLPRPRPRPIMTPRP | -0.895
RRIRKRPPRLPRPRPRPNPMPRP | 0.459
RRIRARPPRLPRPRPRPRFPPRP | 0.421
RRIRERPPRLPRPRPRPLPRPRP | 0.179
RRIRMRPPRLPRPRPRPTYKPRP | -0.0666
RRIRTRPPRLPRPRPRPPATPRP | 0.213
RRIRLRPPRLPRPRPRPSFDPRP | -0.373
RRIRNRPPRLPRPRPRPVNEPRP | -0.0227
RRIRQRPPRLPRPRPRPARCPRP | 0.174
RRIRARPPRLPRPRPRPERNPRP | 0.848
RRIRSRPPRLPRPRPRPAHYPRP | -0.131
RRIRDRPPRLPRPRPRPILMPRP | 0.303
RRIRVRPPRLPRPRPRPYQMPRP | -0.34
RRIRTRPPRLPRPRPRPDGAPRP | 0.132
RRIRTRPPRLPRPRPRPIIPPRP | -0.279
RRIRTRPPRLPRPRPRPIIGPRP | 0.0211
RRIRCRPPRLPRPRPRPEVWPRP | 0.725
RRIRQRPPRLPRPRPRPGDAPRP | 1.65
RRIRRRPPRLPRPRPRPNDMPRP | 0.13
RRIRRRPPRLPRPRPRPQKFPRP | -0.0996
RRIRCRPPRLPRPRPRPCWKPRP | -0.174
RRIRMRPPRLPRPRPRPGNAPRP | 0.573
RRIRCRPPRLPRPRPRPCDEPRP | -0.0731

Sequence | shrunken log2 fold change
RRIRDRPPRLPRPRPRPMRRPRP | 0.363
RRIRTRPPRLPRPRPRPCMMPRP | -0.52
RRIRTRPPRLPRPRPRPKGRPRP | -0.219
RRIRSRPPRLPRPRPRPYDYPRP | -0.305
RRIRERPPRLPRPRPRPDAFPRP | -0.038
RRIRCRPPRLPRPRPRPGPSPRP | 0.17
RRIRDRPPRLPRPRPRPWNMPRP | -0.508
RRIRGRPPRLPRPRPRPIYHPRP | -0.1
RRIRCRPPRLPRPRPRPNPEPRP | 0.448
RRIRFRPPRLPRPRPRPSKHPRP | 0.0257
RRIRPRPPRLPRPRPRPFPAPRP | -0.161
RRIRARPPRLPRPRPRPMPLPRP | -0.0326
RRIRKRPPRLPRPRPRPTPQPRP | 0.896
RRIRCRPPRLPRPRPRPSCYPRP | -0.295
RRIRCRPPRLPRPRPRPWDPPRP | -0.211
RRIRHRPPRLPRPRPRPQDAPRP | -0.00992
RRIRGRPPRLPRPRPRPRGHPRP | 1.11
RRIRGRPPRLPRPRPRPVMQPRP | 0.775
RRIRMRPPRLPRPRPRPYMHPRP | -0.0641
RRIRWRPPRLPRPRPRPLATPRP | 0.766
RRIRNRPPRLPRPRPRPWHTPRP | -0.0681
RRIRERPPRLPRPRPRPHHDPRP | -0.578
RRIRQRPPRLPRPRPRPYWCPRP | -0.164
RRIRMRPPRLPRPRPRPNPSPRP | 0.758
RRIRMRPPRLPRPRPRPTLKPRP | 0.501
